We go through two molecules from publication PMC2724296 (Nucleic Acids Research, 2009).

Data set [1] concerns the target T1, ST1710 (Sulfurisphaera tokodaii, UniProt Q96ZY1).
T1 sequence (Q96ZY1 1-146): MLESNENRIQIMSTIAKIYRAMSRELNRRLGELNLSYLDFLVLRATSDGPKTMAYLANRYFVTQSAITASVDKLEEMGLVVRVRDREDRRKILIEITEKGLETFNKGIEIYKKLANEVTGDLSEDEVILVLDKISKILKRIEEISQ
Kind of data set: differential scanning calorimetry. It counts as binding. On the technique in general: DSC measures the heat that a sample takes up or gives off during a temperature scan.

The next data set has as its target T2, ST1710 R89A (Sulfolobus tokodaii strain 7, UniProt Q96ZY1 1-146, R89A).
T2 sequence: T1 sequence (Q96ZY1 1-146) with R89A
Kind of data set: EMSA.

In the next data set the target is T3, ST1710 R90A (Sulfolobus tokodaii strain 7, UniProt Q96ZY1 1-146, R90A).
T3 sequence: T1 sequence (Q96ZY1 1-146) with R90A
The experiment in a line: EMSA. (In EMSA bound probe runs differently from free probe, usually more slowly.)

Another data set deals with T4, ST1710 K91A (Sulfolobus tokodaii strain 7, UniProt Q96ZY1 1-146, K91A).
T4 sequence: T1 sequence (Q96ZY1 1-146) with K91A
The experiment in a line: EMSA.

Data set [2] concerns the target T5, ST1710 (Sulfolobus tokodaii strain 7, UniProt Q96ZY1 1-146).
T5 sequence: T1 sequence (Q96ZY1 1-146)
Kind of data set: crystal structure.

Where a chain is given by its changes, count along the chain named.

On ST1710 [1], `O=C(O)c1ccccc1O` [sodium salicylate] yielded a Kd of 20 ± 4.9 mM.

B1: 30-mer putative st1710 promoter duplex (dsDNA)
DNA 1: AATAATGTCATTGTTAACAATAGCAAAAAT
DNA 2: ATTTTTGCTATTGTTAACAATGACATTATT
Turning to B1, the binding result with ST1710 R89A is reported as “no binding”; with ST1710 R90A, “no binding”; with ST1710 K91A, “no binding”; with ST1710 [2], “binds”.

Usually Kd stands for the free concentration of one partner at which half of the binding sites on the other are occupied at equilibrium, for simple one-to-one binding.
